Data set [1] can be described thus: Stability study: in vitro incubation at constant temperature (37° C.) in murine plasma, LC-MS/MS. The data set is classed as in vitro ADME. How it is done:
(§1) The experiment was carried out by using an in vitro incubation method at a constant temperature (37° C.) to study the stability of the compound ([…]) from Example L11 in murine plasma or PBS. The compound obtained from Example L11 was dissolved in 1 mL of mouse serum, respectively, and incubated in vitro at a constant temperature for 0 h, 0.5 h, 1 h, 4 h, 24 h, and 48 h, and a percentage of drug remaining was then measured and determined. PBS was used as a negative control group. Peak areas of the drug and an internal standard were measured using an LC-MS/MS method, and ratios of the peaks were used instead of the drug concentration for calculation.

The nature of data set [2]: Stability study: in vitro incubation at constant temperature (37° C.) in PBS, LC-MS/MS. The data set is classed as physicochemical. How it is done: as §1
Data set [3] in a line: PET/CT imaging of ^68Ga complexes in small animals. The note with it: NCr nude, mouse, in vivo, iv, 100 uCi, total radioactivity. The class given is in vivo, NCr nude mice. How it is done:
(§2) BxPC3 human pancreatic cancer cells are suspended in a mixture of 200 μL phosphate buffer and matrix gel (v/v, 1/1), and 2×10^6 cells were implanted subcutaneously into left shoulders of normal NCr nude mice (18-25 g, 4-6 weeks old). After an average of 1.5 weeks, a tumor diameter reached about 10 mm, which was sufficient for biodistribution and single-photon emission computed tomography-computed tomography (SPECT/CT) imaging studies.
(§3) PET-CT and image analysis were performed using a small-animal NovelMedcal PET-CT scanner (Beijing Yongxin). Maximum tangential and radial half-widths of the scanner in a center of field of view were 1.5 mm, and at an edge of the field of view were 1.8 mm.
(§4) About 100 μCi of each of the following complexes: ^68Ga-L00, ^68Ga-L11, ^68Ga-L12, ^68Ga-L13, and ^68Ga-L21, was injected into BxPC3 tumor-bearing mice via tail vein under isoflurane anesthesia, and each of the complexes was injected into four mice. Static PET-CT images were obtained for 15 min 0.5, 1, 2, 3, 4, 5 and 6 hours after intravenous injection. Distribution patterns of the five complexes at each time point were compared.
(§5) PET and CT images were acquired using NMSoft workstation software (Beijing Yongxin), and data were given as a percentage of injected dose per gram of tissue or organ (ID/g), and were determined through decay correction for each sample (standardized to a known weight of the injected dose. Normalization was performed during statistical analysis, and standardized uptake values (SUVs) were calculated according to the following formula: […]

Data set [4] concerns BxPC3 tumor-bearing mice. Put plainly: PET/CT imaging of ^68Ga complexes in small animals. The data set is classed as in vivo, NCr nude mice. How it is done:
as §2, §3, §4, §5

For the compound `C[C@@H](O)[C@@H]1NC(=O)[C@H](CCCNC(=N)N)NC(=O)CNC(=O)[C@H](CC(N)=O)NC(=O)[C@H](Cc2ccc(O)cc2)NC(=O)[C@H](CCCCNC(=O)CCOCCOCCOCCOCCNC(=O)OCC2C3CCc4nnn(CCC(C(=O)N[C@@H](CCCCNC(=O)CCC(=O)N[C@@H](CCCCNC(=O)CCCc5ccc(C(F)(F)F)cc5)C(=O)O)C(=O)NCCOCCOCCOCCOCCC(=O)NCCCC[C@@H]5NC(=O)[C@@H](Cc6ccccc6)NC(=O)[C@H](CC(=O)O)NC(=O)CNC(=O)[C@H](CCCNC(=N)N)NC5=O)N5CCN(CC(=O)O)CCN(CC(=O)O)CCN(CC(=O)O)CC5)c4CCC32)NC1=O` (single isomer, unassigned) [Example L11, RGD-PEG4-Lys (—R—R1)-DOTA-click-PEG4-NGR], the share remaining at 0.5 h, 1 g/mL was 98.5% in data set [1] (mouse, mouse plasma, murine plasma, 37° C., 0.5 h, read-out: Percentage of drug remaining) and 99.3% in data set [2] (0.5 h, read-out: Percentage of drug remaining). The share remaining at 1 h, 1 g/mL came out at 98.4% in data set [1] (mouse, mouse plasma, murine plasma, 37° C., 1 h, read-out: Percentage of drug remaining) and 98.7% in data set [2] (1 h, read-out: Percentage of drug remaining). Besides, the amount remaining at 4 h, 1 g/mL in data set [1] (mouse, mouse plasma, murine plasma, 37° C., 4 h, read-out: Percentage of drug remaining) is 98%; in data set [2] (4 h, read-out: Percentage of drug remaining), 98.6%. Further, the fraction remaining at 24 h, 1 g/mL in data set [1] (mouse, mouse plasma, murine plasma, 37° C., 24 h, read-out: Percentage of drug remaining) amounted to 93.4%; in data set [2] (24 h, read-out: Percentage of drug remaining) it was 98.3%. The amount remaining at 48 h, 1 g/mL in data set [1] (mouse, mouse plasma, murine plasma, 37° C., 48 h, read-out: Percentage of drug remaining) was determined as 86.5%; in data set [2] (48 h, read-out: Percentage of drug remaining), 97.9%. For the same compound, the “Percentage of drug remaining (summary statement)” value in data set [1] (murine plasma or PBS, in vitro incubation at constant temperature, over the study) is reported as “above 95%”. The “Percentage of drug remaining” value in data set [1] (murine plasma, 37° C., 0 h) came to 100%; in data set [2] (0 h), 100%.
In the case of `C[C@@H](O)[C@@H]1NC(=O)[C@H](CCCNC(=N)N)NC(=O)CNC(=O)[C@H](CC(N)=O)NC(=O)[C@H](Cc2ccc(O)cc2)NC(=O)[C@H](CCCCNC(=O)CCOCCOCCOCCOCCNC(=O)OCC2C3CCc4nnn(CCC(C(=O)N[C@@H](CCCCNC(=O)CCC(=O)N[C@@H](CCCCN)C(=O)O)C(=O)NCCOCCOCCOCCOCCC(=O)NCCCC[C@@H]5NC(=O)[C@@H](Cc6ccccc6)NC(=O)[C@H](CC(=O)O)NC(=O)CNC(=O)[C@H](CCCNC(=N)N)NC5=O)N5CCN(CC(=O)O)CCN(CC(=O)O)CCN(CC(=O)O)CC5)c4CCC32)NC1=O` (stereo partly shown) [^68Ga-L00, metal not drawn], in data set [3], the tissue to tissue ratio at 2 h was approximately 0.18. For the same compound, in data set [4] (mouse, in vivo), the “clearance of the drug” value is on record as “rapidly metabolized through the kidneys”. Besides, the “signals in the tumor tissue over time” value in data set [4] (mouse, in vivo, iv) is on record as “gradually weakened”.
`C[C@@H](O)[C@@H]1NC(=O)[C@H](CCCNC(=N)N)NC(=O)CNC(=O)[C@H](CC(N)=O)NC(=O)[C@H](Cc2ccc(O)cc2)NC(=O)[C@H](CCCCNC(=O)CCOCCOCCOCCOCCNC(=O)OCC2C3CCc4nnn(CCC(C(=O)N[C@@H](CCCCNC(=O)CCC(=O)N[C@@H](CCCCNC(=O)CCCc5ccc(C(F)(F)F)cc5)C(=O)O)C(=O)NCCOCCOCCOCCOCCC(=O)NCCCC[C@@H]5NC(=O)[C@@H](Cc6ccccc6)NC(=O)[C@H](CC(=O)O)NC(=O)CNC(=O)[C@H](CCCNC(=N)N)NC5=O)N5CCN(CC(=O)O)CCN(CC(=O)O)CCN(CC(=O)O)CC5)c4CCC32)NC1=O` (single isomer, unassigned) [^68Ga-L11, metal not drawn]: in data set [3] (about 6 hours after the injection, PET/CT, read-out: tumor-to-kidney ratio), the tissue to tissue ratio at 6 h is approximately 1.4. Besides, in data set [4] (MIP images and ROI regions), the “tumor-to-kidney ratio, rank among the five complexes” value is on record as “highest among the five conjugates” and the “tumor-to-muscle ratio, rank among the five complexes” value is “highest among the five conjugates”.

One may read the fraction remaining as the share of the starting amount still present when the sample was taken.

(Values after patent US20260053961A1, “HETERODIMER AND RADIOACTIVE MEDICAL USE THEREOF” (HEXIN (SUZHOU) PHARMACEUTICAL TECHNOLOGY CO., LTD., priority 2022, published 2026).)
